Experimental data published in the RNAGym collection of RNA variant scans (doi:10.7554/elife.90254).

B1: LINE1-mini (parent)
chain: GGCAGAGCUCAACACAGCGUGGCAAAGUGGCUGUGGCUAGACUGCC

Variants of: B1
Experiment: self-cleavage, relative activity (ratio to wild type); higher = more cleavage; in vitro, sequencing; the parent is a self-cleaving ribozyme

**Q.** With GGCAGAGCUCAACACAGCGUGGCAAAGUGGCGGUGGCGAGACUGCC [U32G U38G] as the variant, how does the self-cleavage read?
**A.** The self-cleavage was 0.03.

**Q.** Which self-cleavage does the source give for GGCAGAGCUCAACACAGCGUGGCACAGUGGCUGCGGCUAGACUGCC [A25C U34C] here?
**A.** Its self-cleavage is 0.08.

**Q.** With GGCAGAGCUCAACACAGCGUGGCAAAGUGGCUGUGGCUUGACUGCU [A39U C46U] as the variant, how does the self-cleavage read?
**A.** The self-cleavage was 0.46.

**Q.** With GGCAGAGUUCAACACAGCGUGGCAAAGUGGCUGUGGGUAGACUGCC [C8U C37G] as the variant, how does the self-cleavage read?
**A.** The self-cleavage was 0.07.

**Q.** With GGCAGAGCUCAACACAGCGUGGCAAAAUGGCUGUGGCUAGACUGCG [G27A C46G] as the variant, how does the self-cleavage read?
**A.** The self-cleavage was 1.05.

**Q.** With GGCAGAGCUCAACACAGCGUGGCAAAUAGGCUGUGGCUAGACUGCC [G27U U28A] as the variant, how does the self-cleavage read?
**A.** Its self-cleavage is 0.34.

**Q.** For GGAAGAGCUCUACACAGCGUGGCAAAGUGGCUGUGGCUAGACUGCC [C3A A11U], which self-cleavage is on record?
**A.** Its self-cleavage is 0.06.

**Q.** Which self-cleavage does the source give for GGAAGAGCUCCACACAGCGUGGCAAAGUGGCUGUGGCUAGACUGCC [C3A A11C] here?
**A.** The self-cleavage was 0.04.

**Q.** Which self-cleavage does the source give for GGUAGAGCUCAACACAGCGUGGCAAAGUGGCUGUGGCUAGUCUGCC [C3U A41U] here?
**A.** Its self-cleavage is 0.56.

**Q.** With GUCAGAGCUCAACACUGCGUGGCAAAGUGGCUGUGGCUAGACUGCC [G2U A16U] as the variant, how does the self-cleavage read?
**A.** Its self-cleavage is 0.02.

**Q.** For GGCAGAGCUCAACUCAGCGUGGGAAAGUGGCUGUGGCUAGACUGCC [A14U C23G], which self-cleavage is on record?
**A.** The self-cleavage was 0.15.

**Q.** With GGCAGAGCUCAACUCAGCGGGGCAAAGUGGCUGUGGCUAGACUGCC [A14U U20G] as the variant, how does the self-cleavage read?
**A.** The self-cleavage was 0.28.

**Q.** For GGCAGAGCUCAACACAGCGUGGCAAAAUGGCUGUGGGUAGACUGCC [G27A C37G], which self-cleavage is on record?
**A.** The self-cleavage was 0.02.

**Q.** Which self-cleavage does the source give for GGCAGAGCUCAACCCAGCUUGGCAAAGUGGCUGUGGCUAGACUGCC [A14C G19U] here?
**A.** Its self-cleavage is 0.1.

**Q.** For GGCAGAACUCAACACGGCGUGGCAAAGUGGCUGUGGCUAGACUGCC [G7A A16G], which self-cleavage is on record?
**A.** The self-cleavage was 0.28.

**Q.** For CGCAGAGCUCUACACAGCGUGGCAAAGUGGCUGUGGCUAGACUGCC [G1C A11U], which self-cleavage is on record?
**A.** The self-cleavage was 0.03.

**Q.** With GGCAGAGCUGAACACAGGGUGGCAAAGUGGCUGUGGCUAGACUGCC [C10G C18G] as the variant, how does the self-cleavage read?
**A.** Its self-cleavage is 0.04.

**Q.** For GGCAGAGCUCAACAGAGCGUGGCAAAGUGGCUGUGGCUCGACUGCC [C15G A39C], which self-cleavage is on record?
**A.** Its self-cleavage is 0.02.

**Q.** Which self-cleavage does the source give for GGCAGAGCUCAACACAGCGUUGCAAAGUGGCUGGGGCUAGACUGCC [G21U U34G] here?
**A.** Its self-cleavage is 0.34.

**Q.** For GGCAGAGCUCAACACAGCAUGGCAAAGUGGCUUUGGCUAGACUGCC [G19A G33U], which self-cleavage is on record?
**A.** The self-cleavage was 0.15.

**Q.** Which self-cleavage does the source give for GGCAGAGCUCAACACAGCGUAGCAAAGCGGCUGUGGCUAGACUGCC [G21A U28C] here?
**A.** Its self-cleavage is 1.44.

**Q.** For GGCAGAGCUCAACACAGCGUCGCAAAGUGGCUGUGGCUACACUGCC [G21C G40C], which self-cleavage is on record?
**A.** The self-cleavage was 0.07.

**Q.** Which self-cleavage does the source give for GGCAGAGCUCAACACAGCGCGGUAAAGUGGCUGUGGCUAGACUGCC [U20C C23U] here?
**A.** The self-cleavage was 0.61.

**Q.** With GGCAGAGCUCAACACAACGUGGCAAAGUGGCUGUGGCUAGGCUGCC [G17A A41G] as the variant, how does the self-cleavage read?
**A.** The self-cleavage was 0.07.

**Q.** For GGCAGAGCUCAACACAGCGUGGCAAAGUGGCUGGGGCUAGGCUGCC [U34G A41G], which self-cleavage is on record?
**A.** The self-cleavage was 0.05.

**Q.** With GGCAGAGCUCACUACAGCGUGGCAAAGUGGCUGUGGCUAGACUGCC [A12C C13U] as the variant, how does the self-cleavage read?
**A.** Its self-cleavage is 0.01.

**Q.** With GGCAGAGCUCACCACAGCGUGGCAAAGAGGCUGUGGCUAGACUGCC [A12C U28A] as the variant, how does the self-cleavage read?
**A.** Its self-cleavage is 0.02.

**Q.** With GGCAGAGCUCAGCACAGCGUGGCAAAGUGGCUGUGGCUAGACUGCU [A12G C46U] as the variant, how does the self-cleavage read?
**A.** Its self-cleavage is 0.03.

**Q.** For GGCAGAGCUCAACACAGCGUGGCAUAGUGGCUGUAGCUAGACUGCC [A25U G35A], which self-cleavage is on record?
**A.** The self-cleavage was 0.12.

**Q.** Which self-cleavage does the source give for GGCAGAGCUCAACACAGCGUGGCAAAGUGGGUGUGGCUAGACUCCC [C31G G44C] here?
**A.** Its self-cleavage is 0.05.

**Q.** Which self-cleavage does the source give for GGCAGAGCUCUACACAGCGUCGCAAAGUGGCUGUGGCUAGACUGCC [A11U G21C] here?
**A.** Its self-cleavage is 0.12.

**Q.** Which self-cleavage does the source give for GACAGACCUCAACACAGCGUGGCAAAGUGGCUGUGGCUAGACUGCC [G2A G7C] here?
**A.** The self-cleavage was 0.39.

**Q.** With GGCAGAGCUCAACACAGUGUGGUAAAGUGGCUGUGGCUAGACUGCC [C18U C23U] as the variant, how does the self-cleavage read?
**A.** Its self-cleavage is 1.07.

**Q.** With GGCAGAGCUCAACACAGCUUGUCAAAGUGGCUGUGGCUAGACUGCC [G19U G22U] as the variant, how does the self-cleavage read?
**A.** The self-cleavage was 0.63.

**Q.** For GGCAGAGCUCAACACAGCGUGGCAAGGUCGCUGUGGCUAGACUGCC [A26G G29C], which self-cleavage is on record?
**A.** Its self-cleavage is 0.89.

**Q.** Which self-cleavage does the source give for GGCAGAGCUCAACACACCGUGGCAAAGUGGCUGUGGCGAGACUGCC [G17C U38G] here?
**A.** Its self-cleavage is 0.03.

**Q.** Which self-cleavage does the source give for GGCAGAGGUCAACACAGCGUGGCAAAGUGUCUGUGGCUAGACUGCC [C8G G30U] here?
**A.** Its self-cleavage is 0.2.

**Q.** For GGCAGAGCUCAACACAGCGUGGCGAAGUGGCUGUGGCUUGACUGCC [A24G A39U], which self-cleavage is on record?
**A.** The self-cleavage was 1.31.

**Q.** With GGCAGAGCUCAACACAGCGUGGCAAUGUGGAUGUGGCUAGACUGCC [A26U C31A] as the variant, how does the self-cleavage read?
**A.** Its self-cleavage is 0.14.

**Q.** Which self-cleavage does the source give for GGCAGAGCUCAAGACCGCGUGGCAAAGUGGCUGUGGCUAGACUGCC [C13G A16C] here?
**A.** The self-cleavage was 0.08.

**Q.** With GGCAGAGCUCAACACAGCGUGGCAAAGUGGCUGUCGCUGGACUGCC [G35C A39G] as the variant, how does the self-cleavage read?
**A.** The self-cleavage was 0.09.

**Q.** For GGCAGAGCUCAACACAGCGUGGCACAGUGGCUGUGGGUAGACUGCC [A25C C37G], which self-cleavage is on record?
**A.** Its self-cleavage is 0.06.

**Q.** For GGCAGAGCUCAACACAGCGUGGAAAAGUGGCUGUGGCUUGACUGCC [C23A A39U], which self-cleavage is on record?
**A.** The self-cleavage was 0.73.

**Q.** With GGCAGAGCUCAACACAGCCUGGCACAGUGGCUGUGGCUAGACUGCC [G19C A25C] as the variant, how does the self-cleavage read?
**A.** The self-cleavage was 0.5.

**Q.** Which self-cleavage does the source give for GCCAGAGCUCAACACAGCGUGGCAAAGUGGCUGCGGCUAGACUGCC [G2C U34C] here?
**A.** The self-cleavage was 0.06.

**Q.** With GGCAGAGCUCAACACAGCGUGGCGAAGUGGCUGUGGCAAGACUGCC [A24G U38A] as the variant, how does the self-cleavage read?
**A.** Its self-cleavage is 0.76.

**Q.** Which self-cleavage does the source give for GGCAGAGCUCCACACAGCGUGGCAAAGUGGCUGUGGCUAGACUGCU [A11C C46U] here?
**A.** Its self-cleavage is 0.11.

**Q.** With GGCAGAGCUCAACACCGCGUGGCAAAGUGGCUGUGGCUAGACUGGC [A16C C45G] as the variant, how does the self-cleavage read?
**A.** Its self-cleavage is 0.06.

**Q.** With GGCAGAGCUCAACACAGCGUGGCAAAGUGGCUGUGGCUAGGCUGAC [A41G C45A] as the variant, how does the self-cleavage read?
**A.** The self-cleavage was 0.09.

**Q.** Which self-cleavage does the source give for GGCAGAGCUCAACACGGCGUGGCAAAGUGGCUGGGGCUAGACUGCC [A16G U34G] here?
**A.** Its self-cleavage is 0.08.

**Q.** Which self-cleavage does the source give for GGCAGAGCUCAACACAGCGUGGCAAAGUGGCUAUGGCUUGACUGCC [G33A A39U] here?
**A.** The self-cleavage was 0.06.

**Q.** Which self-cleavage does the source give for GGCAGAACUCAACACAGCGUGCCAAAGUGGCUGUGGCUAGACUGCC [G7A G22C] here?
**A.** The self-cleavage was 0.13.

**Q.** With GGCAGAGCUCAACGCAGCGUGGCAAAGUGGCUGUGGCCAGACUGCC [A14G U38C] as the variant, how does the self-cleavage read?
**A.** Its self-cleavage is 0.15.

**Q.** For GGCAGAGCUCAACACAGCGUGGCCAAGUGGCUGUGGCUAGACUUCC [A24C G44U], which self-cleavage is on record?
**A.** Its self-cleavage is 0.13.

**Q.** With GGCAGAGCUCAACACAGCGUGGCGAAGUAGCUGUGGCUAGACUGCC [A24G G29A] as the variant, how does the self-cleavage read?
**A.** Its self-cleavage is 0.8.

**Q.** Which self-cleavage does the source give for GCCAGAGCUCAACACAGCGUGGCAAAGUGGGUGUGGCUAGACUGCC [G2C C31G] here?
**A.** The self-cleavage was 0.06.
